From publication PMC9352680, “A comprehensive thermodynamic model for RNA binding by the Saccharomyces cerevisiae Pumilio protein PUF4”

T1: PUF4 RNA-binding domain (Saccharomyces cerevisiae, UniProt P25339 537-888)
T1 sequence: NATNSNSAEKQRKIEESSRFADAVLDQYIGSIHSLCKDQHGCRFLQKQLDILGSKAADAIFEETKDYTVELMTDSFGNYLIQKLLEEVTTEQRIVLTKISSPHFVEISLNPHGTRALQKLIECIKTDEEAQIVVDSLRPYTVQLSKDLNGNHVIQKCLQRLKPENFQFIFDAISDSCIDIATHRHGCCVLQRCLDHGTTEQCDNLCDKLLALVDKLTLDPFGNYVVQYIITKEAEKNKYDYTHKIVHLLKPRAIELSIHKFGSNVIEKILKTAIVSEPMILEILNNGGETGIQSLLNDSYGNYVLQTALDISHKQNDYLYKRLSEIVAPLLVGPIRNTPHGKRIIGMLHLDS


The binders below were run against T1, PUF4 RNA-binding domain (assay: Mg; RNA-MaP; 20 mM Na-HEPES pH 7.4, 30 mM KOAc, 0.75 mM MgCl2, 0.1% Tween-20, 5% glycerol, 0.1 mg/mL BSA, 2 mM DTT; 25 C; 0.0125-409.6 nM protein). Conditions: tags: N-His6-TEV cleaved; C-SNAP kept, Cy3B-labelled; label: tethered on chip by stalled RNA polymerase.

Row | Binder | Kd
1 | UCUCUUCCUUGUAUAUAUAUCUCUU (ssRNA) [Ie_S1_P3E.2_K3.1_C3.2_[+-2C]_H3.1_A3.1_F3.1_T3.2] | 6.23 nM
2 | UCUCUUUCAUGUAUAUAUAUCUCUU (ssRNA) [Id_iii_S1_P3E.5_K3.1_C3.3_[T-1A]_H3.1_A3.1_F3.1_T3.2] | 6.5 nM
3 | UCUCUUUGUCCUAUUAUCUCUU (ssRNA) [Ib_S1_P5E.1_K5.1_C5.1_H5.1_[A4C]_A5.1_[T5C]_F5.1_T5.1] | 79.5 nM
4 | UCUCUUGCUUAUAUAUAUAUCUCUU (ssRNA) [Id_iii_S1_P3E.6_K3.2_C3.3_[T-3G]_H3.2_A3.1_F3.1_T3.2] | 380 nM
5 | UCUCUUUGUUCUAUUAUCUCUU (ssRNA) [Ib_S1_P5E.1_K5.1_C5.1_H5.1_[A4T]_A5.1_[T5C]_F5.1_T5.1] | 31.7 nM
6 | UCUCUUUCUUGUAUAUAUUUCUCUU (ssRNA) [Id_iii_S1_P3E.5_K3.1_C3.3_H3.1_A3.1_F3.1_T3.2_[A10T]] | 6.04 nM
7 | UCUCUUUAUUAUAUAUAUAUCUCUU (ssRNA) [Id_iii_S1_P3E.6_K3.2_C3.3_[C-2A]_H3.2_A3.1_F3.1_T3.2] | 373 nM
8 | UCUCUUUCUUGUAUAUAUCUCUCUU (ssRNA) [Id_iii_S1_P3E.5_K3.1_C3.3_H3.1_A3.1_F3.1_T3.2_[A10C]] | 6.06 nM
9 | UCUCUUUUUUAUAUAUAUAUCUCUU (ssRNA) [Id_iii_S1_P3E.6_K3.2_C3.3_[C-2T]_H3.2_A3.1_F3.1_T3.2] | 486 nM
10 | UCUCUUUGUGUCAUUAUCUCUU (ssRNA) [Ib_S1_P5E.1_K5.1_C5.1_H5.1_[A4G]_A5.1_[T6C]_F5.1_T5.1] | 30.7 nM
11 | UCUCUUUGUUGUAUAUAUAUCUCUU (ssRNA) [Id_iii_S1_P3E.5_K3.1_C3.3_[C-2G]_H3.1_A3.1_F3.1_T3.2] | 5.21 nM
12 | Id_ii_S4_P5E.3_K5.2_C5.2_[T-1G]_H5.2_A5.1_F5.1_T5.2_[A12T] (ssRNA) RNA: UUUGACAACUGAUCGUUCUUUCUCGUAUAUUAUUAUUUUCUUUCUCGAUCAGUUGUCUUU | 15.6 nM
13 | Id_ii_S4_P5E.4_K5.3_C5.2_[C-2G]_H5.3_A5.1_F5.1_T5.2_[A12C] (ssRNA) RNA: UUUGACAACUGAUCGUUCUUUCUGUACACUUAUUAUCUUCUUUCUCGAUCAGUUGUCUUU | 3 nM
14 | Id_ii_S4_P5E.4_K5.3_C5.2_H5.3_A5.1_F5.1_T5.2_[A12T] (ssRNA) RNA: UUUGACAACUGAUCGUUCUUUCUCUACACUUAUUAUUUUCUUUCUCGAUCAGUUGUCUUU | > 2300 nM
15 | Id_ii_S4_P5E.4_K5.3_C5.2_[C-2A]_H5.3_A5.1_F5.1_T5.2_[A12T] (ssRNA) RNA: UUUGACAACUGAUCGUUCUUUCUAUACACUUAUUAUUUUCUUUCUCGAUCAGUUGUCUUU | 467 nM
16 | Id_ii_S4_P5E.4_K5.3_C5.2_[C-2T]_[T-1A]_H5.3_A5.1_F5.1_T5.2_[A12C] (ssRNA) RNA: UUUGACAACUGAUCGUUCUUUCUUAACACUUAUUAUCUUCUUUCUCGAUCAGUUGUCUUU | > 2300 nM
17 | Id_ii_S4_P5E.3_K5.2_C5.2_[T-1A]_H5.2_A5.1_F5.1_T5.2_[T11A]_[A12G] (ssRNA) RNA: UUUGACAACUGAUCGUUCUUUCUCAUAUAUUAUUAAGUUCUUUCUCGAUCAGUUGUCUUU | > 2300 nM
18 | Id_ii_S4_P5E.4_K5.3_C5.2_[C-2T]_[T-1A]_H5.3_A5.1_F5.1_T5.2 (ssRNA) RNA: UUUGACAACUGAUCGUUCUUUCUUAACACUUAUUAUAUUCUUUCUCGAUCAGUUGUCUUU | 893 nM
19 | Id_ii_S4_P5E.3_K5.2_C5.2_H5.2_A5.1_F5.1_T5.2_[T11C]_[A12G] (ssRNA) RNA: UUUGACAACUGAUCGUUCUUUCUCUUAUAUUAUUACGUUCUUUCUCGAUCAGUUGUCUUU | 470 nM
20 | Id_ii_S4_P5E.4_K5.3_C5.2_[C-2A]_H5.3_A5.1_F5.1_T5.2_[A12G] (ssRNA) RNA: UUUGACAACUGAUCGUUCUUUCUAUACACUUAUUAUGUUCUUUCUCGAUCAGUUGUCUUU | 1530 nM
21 | Id_ii_S4_P5E.4_K5.3_C5.2_[T-1G]_H5.3_A5.1_F5.1_T5.2 (ssRNA) RNA: UUUGACAACUGAUCGUUCUUUCUCGACACUUAUUAUAUUCUUUCUCGAUCAGUUGUCUUU | 1170 nM
22 | Id_ii_S4_P5E.4_K5.3_C5.2_H5.3_A5.1_F5.1_T5.2_[T11G]_[A12C] (ssRNA) RNA: UUUGACAACUGAUCGUUCUUUCUCUACACUUAUUAGCUUCUUUCUCGAUCAGUUGUCUUU | > 2300 nM
23 | Id_ii_S4_P5E.4_K5.3_C5.2_[C-2G]_H5.3_A5.1_F5.1_T5.2_[T11A]_[A12T] (ssRNA) RNA: UUUGACAACUGAUCGUUCUUUCUGUACACUUAUUAAUUUCUUUCUCGAUCAGUUGUCUUU | 2.81 nM
24 | Id_ii_S4_P5E.4_K5.3_C5.2_[C-2T]_H5.3_A5.1_F5.1_T5.2_[T11A]_[A12T] (ssRNA) RNA: UUUGACAACUGAUCGUUCUUUCUUUACACUUAUUAAUUUCUUUCUCGAUCAGUUGUCUUU | > 2300 nM
25 | Id_ii_S4_P5E.4_K5.3_C5.2_[T-1C]_H5.3_A5.1_F5.1_T5.2_[A12G] (ssRNA) RNA: UUUGACAACUGAUCGUUCUUUCUCCACACUUAUUAUGUUCUUUCUCGAUCAGUUGUCUUU | > 2300 nM

Row | Binder | Kd
26 | Id_ii_S4_P5E.4_K5.3_C5.2_[C-2T]_H5.3_A5.1_F5.1_T5.2_[A12T] (ssRNA) RNA: UUUGACAACUGAUCGUUCUUUCUUUACACUUAUUAUUUUCUUUCUCGAUCAGUUGUCUUU | > 2300 nM
27 | Id_ii_S4_P5E.3_K5.2_C5.2_H5.2_A5.1_F5.1_T5.2_[A12T] (ssRNA) RNA: UUUGACAACUGAUCGUUCUUUCUCUUAUAUUAUUAUUUUCUUUCUCGAUCAGUUGUCUUU | 168 nM
28 | Id_ii_S4_P5E.4_K5.3_C5.2_[C-2A]_[T-1A]_H5.3_A5.1_F5.1_T5.2 (ssRNA) RNA: UUUGACAACUGAUCGUUCUUUCUAAACACUUAUUAUAUUCUUUCUCGAUCAGUUGUCUUU | 845 nM
29 | Id_ii_S4_P5E.3_K5.2_C5.2_[T-1C]_H5.2_A5.1_F5.1_T5.2_[T11C]_[A12T] (ssRNA) RNA: UUUGACAACUGAUCGUUCUUUCUCCUAUAUUAUUACUUUCUUUCUCGAUCAGUUGUCUUU | 65.6 nM
30 | Id_ii_S4_P5E.4_K5.3_C5.2_[T-1C]_H5.3_A5.1_F5.1_T5.2_[T11C]_[A12T] (ssRNA) RNA: UUUGACAACUGAUCGUUCUUUCUCCACACUUAUUACUUUCUUUCUCGAUCAGUUGUCUUU | > 2300 nM
31 | Id_ii_S4_P5E.4_K5.3_C5.2_[C-2T]_[T-1C]_H5.3_A5.1_F5.1_T5.2_[A12T] (ssRNA) RNA: UUUGACAACUGAUCGUUCUUUCUUCACACUUAUUAUUUUCUUUCUCGAUCAGUUGUCUUU | > 2300 nM
32 | Id_ii_S4_P5E.4_K5.3_C5.2_[C-2G]_[T-1C]_H5.3_A5.1_F5.1_T5.2_[T11A]_[A12T] (ssRNA) RNA: UUUGACAACUGAUCGUUCUUUCUGCACACUUAUUAAUUUCUUUCUCGAUCAGUUGUCUUU | 559 nM
33 | Id_ii_S4_P5E.3_K5.2_C5.2_H5.2_A5.1_F5.1_T5.2_[T11C]_[A12T] (ssRNA) RNA: UUUGACAACUGAUCGUUCUUUCUCUUAUAUUAUUACUUUCUUUCUCGAUCAGUUGUCUUU | 96.6 nM
34 | Id_ii_S4_P5E.3_K5.2_C5.2_[T-1A]_H5.2_A5.1_F5.1_T5.2_[T11C]_[A12C] (ssRNA) RNA: UUUGACAACUGAUCGUUCUUUCUCAUAUAUUAUUACCUUCUUUCUCGAUCAGUUGUCUUU | 116 nM
35 | Id_ii_S4_P5E.4_K5.3_C5.2_[C-2A]_[T-1C]_H5.3_A5.1_F5.1_T5.2_[A12G] (ssRNA) RNA: UUUGACAACUGAUCGUUCUUUCUACACACUUAUUAUGUUCUUUCUCGAUCAGUUGUCUUU | > 2300 nM
36 | Id_ii_S4_P5E.3_K5.2_C5.2_[T-1A]_H5.2_A5.1_F5.1_T5.2_[T11A]_[A12C] (ssRNA) RNA: UUUGACAACUGAUCGUUCUUUCUCAUAUAUUAUUAACUUCUUUCUCGAUCAGUUGUCUUU | 143 nM
37 | Id_ii_S4_P5E.3_K5.2_C5.2_[T-1A]_H5.2_A5.1_F5.1_T5.2_[T11A]_[A12T] (ssRNA) RNA: UUUGACAACUGAUCGUUCUUUCUCAUAUAUUAUUAAUUUCUUUCUCGAUCAGUUGUCUUU | 214 nM
38 | Id_ii_S4_P5E.4_K5.3_C5.2_[C-2G]_H5.3_A5.1_F5.1_T5.2_[A12T] (ssRNA) RNA: UUUGACAACUGAUCGUUCUUUCUGUACACUUAUUAUUUUCUUUCUCGAUCAGUUGUCUUU | 2.65 nM
39 | UCUCUUUCCUGUAUAUAUAUCUCUU (ssRNA) [Id_iii_S1_P3E.5_K3.1_C3.3_[T-1C]_H3.1_A3.1_F3.1_T3.2] | 4.14 nM
40 | UCUCUUUCUUGUAUAUAUGUCUCUU (ssRNA) [Id_iii_S1_P3E.5_K3.1_C3.3_H3.1_A3.1_F3.1_T3.2_[A10G]] | 7.51 nM
41 | UCUCUUACUUAUAUAUAUAUCUCUU (ssRNA) [Id_iii_S1_P3E.6_K3.2_C3.3_[T-3A]_H3.2_A3.1_F3.1_T3.2] | 113 nM
42 | UCUCUUUUUUGUAUAUAUAUCUCUU (ssRNA) [Id_iii_S1_P3E.5_K3.1_C3.3_[C-2T]_H3.1_A3.1_F3.1_T3.2] | 6.24 nM
43 | UCUCUUCCUUAUAUAUAUAUCUCUU (ssRNA) [Id_iii_S1_P3E.6_K3.2_C3.3_[T-3C]_H3.2_A3.1_F3.1_T3.2] | 364 nM
44 | UCUCUUACUUGUAUAUAUAUCUCUU (ssRNA) [Id_iii_S1_P3E.5_K3.1_C3.3_[T-3A]_H3.1_A3.1_F3.1_T3.2] | 5.04 nM
45 | UCUCUUUAUUGUAUAUAUAUCUCUU (ssRNA) [Id_iii_S1_P3E.5_K3.1_C3.3_[C-2A]_H3.1_A3.1_F3.1_T3.2] | 9.45 nM
46 | UCUCUUUCGUAUAUAUAUAUCUCUU (ssRNA) [Id_iii_S1_P3E.6_K3.2_C3.3_[T-1G]_H3.2_A3.1_F3.1_T3.2] | 502 nM
47 | UCUCUUUGUAUUGUUAUCUCUU (ssRNA) [Ia_S1_P5E.1_K5.1_C5.1_H5.1_A5.1_[A7G]_F5.1_T5.1] | 11.2 nM
48 | UCUCUUUCGUGUAUAUAUAUCUCUU (ssRNA) [Id_iii_S1_P3E.5_K3.1_C3.3_[T-1G]_H3.1_A3.1_F3.1_T3.2] | 6.72 nM
49 | UCUCUUUGUUGUAUUAUCUCUU (ssRNA) [Ib_S1_P5E.1_K5.1_C5.1_H5.1_[A4T]_A5.1_[T5G]_F5.1_T5.1] | 22.2 nM
